For data set [1], the target named is CosR (Campylobacter jejuni) (UniProt A0A3H9R6A1). Put plainly: fluorescence polarization. As to conditions: FP: 10 mM PBS pH 7.4, 5 nM fluoresceinated DNA, 1 ug poly(dI-dC), 25 C. A general note: Fluorescence polarisation rises when a labelled molecule tumbles more slowly, as on binding a larger partner.
In data set [2] the target is Campylobacter jejuni CosR regulator (Campylobacter jejuni). Briefly: crystal structure; CosR (8 mg/mL) with 21 bp DNA1 duplex (2.6 mg/mL), vapor diffusion, Na-MES pH 6.5, 2.90 Å; the dimer is formed by a crystallographic symmetry operator.
For data set [3] the target is unchanged. Put plainly: crystal structure; CosR (320 uM) with 21 bp DNA2 duplex (192 uM), vapor diffusion, Na-MES pH 6.5, 2.20 Å.
Data set [4] shares this target. Briefly: cryo-EM structure; single-particle cryo-EM of 20 uM CosR incubated 2 h with 10 uM 40 bp ds-DNA; the class of DNA-free particles (apo-CosR) sorted in silico (build and retrieve), 3.77 Å.

Broadly, the Kd is the free concentration of one partner at which half of the binding sites on the other are occupied at equilibrium, for simple one-to-one binding. In data set [1], “TATTAACCAAAATTAAGATAT (double strand) [DNA1 (fluorescein)]” showed a Kd of 4.5 nM.
The stoichiometry N is a count of units in the complex or per binding partner. As to “Campylobacter jejuni CosR regulator (natural protein)”, the stoichiometry N in data set [2], in data set [3] and in data set [4] was 2 in each case.
In turn, “AATTAAGATATTATTAACCAA (double strand) [DNA2 (fluorescein)]” had a Kd in data set [1] of 2.5 nM.

Source of the values: paper PMC10936212.
